Consider two molecules from publication PMC8591536, “DNA asymmetry promotes SUMO modification of the single‐stranded DNA‐binding protein RPA” (The EMBO Journal, 2021).

The target of series [1] is Siz2 full length;RPA (Rfa1/Rfa2/Rfa3) (Saccharomyces cerevisiae? (budding …, UniProt Q12216;P22336;P26754;P26755 1-726;1-621;1-273;1-122, |)). Nature of the series: EMSA; Siz2 titrated into RPA-DNA; 5 mM MgCl2; FP: 20 mM HEPES pH 7.5, 125 mM NaCl, 0.1% Tween-20, 23°C, 50 nM DNA (RPA/SUMO-RPA on ss32: 1 nM DNA, plus 5 mM MgCl2, 1 mM DTT); EMSA: same buffer with 5 mM MgCl2 (Fig 8 also 1 mM DTT), 23°C, 6% gel in 0.5x TBE. The settings on record: protein: recombinant;recombinant; tags: His6-Smt3 removed with Ulp1;noncleavable N-terminal His6 on Rfa2; copies: 1;1;1;1; label: 5' 6-FAM on strand 2 (fw20); 20 bp duplex, 3' overhang 32 nt (dT).

A further series concerns the target T1, Siz2∆CT K65E K66E (Saccharomyces cerevisiae? (budding …, UniProt Q12216 1-420, K65E;K66E)).
T1 sequence: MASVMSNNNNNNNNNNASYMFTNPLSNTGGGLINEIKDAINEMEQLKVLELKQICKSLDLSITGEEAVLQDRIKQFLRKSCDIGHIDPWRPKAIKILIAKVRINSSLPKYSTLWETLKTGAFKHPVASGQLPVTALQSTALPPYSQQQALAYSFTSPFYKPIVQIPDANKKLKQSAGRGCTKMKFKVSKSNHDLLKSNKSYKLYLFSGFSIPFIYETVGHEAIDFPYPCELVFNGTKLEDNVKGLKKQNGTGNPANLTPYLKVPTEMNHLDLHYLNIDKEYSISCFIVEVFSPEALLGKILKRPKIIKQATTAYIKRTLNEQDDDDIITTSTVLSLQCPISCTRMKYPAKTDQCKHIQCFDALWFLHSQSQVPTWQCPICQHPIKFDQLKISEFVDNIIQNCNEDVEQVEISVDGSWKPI
The series can be described thus: fluorescence polarization; FP: 20 mM HEPES pH 7.5, 125 mM NaCl, 0.1% Tween-20, 23°C, 50 nM DNA (RPA/SUMO-RPA on ss32: 1 nM DNA, plus 5 mM MgCl2, 1 mM DTT); EMSA: same buffer with 5 mM MgCl2 (Fig 8 also 1 mM DTT), 23°C, 6% gel in 0.5x TBE. The settings on record: protein: recombinant; tags: His6-thioredoxin removed with TEV; label: 5' 6-FAM on strand 1; blunt.

Siz2 full length;RPA (Rfa1/Rfa2/Rfa3) (Saccharomyces cerevisiae?, sequence (P22336 whole entry, chain 2 of 3): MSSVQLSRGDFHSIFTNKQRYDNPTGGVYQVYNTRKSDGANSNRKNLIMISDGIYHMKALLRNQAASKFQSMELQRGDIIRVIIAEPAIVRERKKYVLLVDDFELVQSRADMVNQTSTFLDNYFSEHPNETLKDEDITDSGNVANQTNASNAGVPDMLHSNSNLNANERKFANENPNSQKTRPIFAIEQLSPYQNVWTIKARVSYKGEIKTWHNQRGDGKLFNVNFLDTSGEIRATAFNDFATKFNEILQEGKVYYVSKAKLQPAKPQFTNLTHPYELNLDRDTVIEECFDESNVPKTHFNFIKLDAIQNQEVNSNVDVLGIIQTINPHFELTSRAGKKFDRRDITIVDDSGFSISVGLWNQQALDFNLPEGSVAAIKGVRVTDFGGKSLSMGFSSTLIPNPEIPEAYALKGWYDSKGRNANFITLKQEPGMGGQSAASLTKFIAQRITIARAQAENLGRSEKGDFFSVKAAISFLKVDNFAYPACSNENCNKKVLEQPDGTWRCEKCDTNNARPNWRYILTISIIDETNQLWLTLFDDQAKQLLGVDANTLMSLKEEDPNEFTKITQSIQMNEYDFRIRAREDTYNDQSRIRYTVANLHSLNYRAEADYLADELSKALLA
Siz2 full length;RPA (Rfa1/Rfa2/Rfa3) (Saccharomyces cerevisiae?, sequence (P26754 whole entry, chain 3 of 3): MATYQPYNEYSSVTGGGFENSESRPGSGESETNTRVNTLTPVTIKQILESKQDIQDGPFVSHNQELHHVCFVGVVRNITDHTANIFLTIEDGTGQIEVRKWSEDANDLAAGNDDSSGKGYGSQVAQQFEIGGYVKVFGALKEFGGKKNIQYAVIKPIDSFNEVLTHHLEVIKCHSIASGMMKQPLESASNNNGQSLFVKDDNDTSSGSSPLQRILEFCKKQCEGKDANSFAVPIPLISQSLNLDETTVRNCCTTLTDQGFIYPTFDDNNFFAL
Siz2 full length;RPA (Rfa1/Rfa2/Rfa3) (Saccharomyces cerevisiae?, sequence (P26755 whole entry, chain 4 of 3): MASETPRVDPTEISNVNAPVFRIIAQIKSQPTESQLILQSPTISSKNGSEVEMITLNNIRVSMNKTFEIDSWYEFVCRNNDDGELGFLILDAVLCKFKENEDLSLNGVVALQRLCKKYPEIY

B1: 6-FAM-ds20ss32 (mixed)
DNA 1: GAAGCAAAACTAGCTACAGCTTTTTTTTTTTTTTTTTTTTTTTTTTTTTTTT
DNA 2: GCTGTAGCTAGTTTTGCTTC
As for B1, in series [1], the binding result is on record as “binds”.

B2: 6-FAM-ds20 (dsDNA)
DNA 1: GCTGTAGCTAGTTTTGCTTC
DNA 2: GAAGCAAAACTAGCTACAGC
Take B2: in the series with Siz2∆CT K65E K66E, the binding result is reported as “no binding”.
